The values that follow are results of earlier work, collected in PMC12489035.

The data set addresses APP tail cytoplasmic tail (Homo sapiens) (UniProt P05067).

Chain of AP-4 mu4 subunit (O00189 whole entry): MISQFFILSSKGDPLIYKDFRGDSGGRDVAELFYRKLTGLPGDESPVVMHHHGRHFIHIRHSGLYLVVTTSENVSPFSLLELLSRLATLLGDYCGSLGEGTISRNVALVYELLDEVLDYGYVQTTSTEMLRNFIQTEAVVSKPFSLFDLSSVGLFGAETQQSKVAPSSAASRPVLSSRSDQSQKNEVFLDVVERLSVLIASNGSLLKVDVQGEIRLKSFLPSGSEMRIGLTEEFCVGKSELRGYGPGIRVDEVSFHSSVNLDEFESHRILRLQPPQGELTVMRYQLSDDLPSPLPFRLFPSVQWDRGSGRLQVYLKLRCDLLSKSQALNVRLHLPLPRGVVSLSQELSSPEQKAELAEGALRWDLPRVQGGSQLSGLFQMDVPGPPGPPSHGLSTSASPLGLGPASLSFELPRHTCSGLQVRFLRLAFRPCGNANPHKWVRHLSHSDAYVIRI
Chain of APP tail cytoplasmic tail (Homo sapiens) (P05067 724-770): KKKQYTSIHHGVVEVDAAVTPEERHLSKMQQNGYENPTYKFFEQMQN

Consider AP-4 mu4 subunit (from UniProt O00189), for which the Kd is 27.7 µM.
